In series [1] the test system is T1, succinyl-AAPF-p-nitroanilide.
T1 sequence: AAPF

Series [2] has as its system T2, suc-AAPR-pNA.
T2 sequence: AAPR

The test system of series [3] is T3, suc-AAPA-pNA.
T3 sequence: AAPA

For series [4], the system named is T4, suc-AAPE-pNA.
T4 sequence: AAPE

The target of series [5] is T5, suc-AAPE-pNA.
T5 chain: AAPE

Series [6] addresses T6, suc-AAPR-pNA.
T6 chain: AAPR

Series [7] addresses T7, succinyl-AAPF-p-nitroanilide.
T7 chain: AAPF

Series [8] deals with T8, suc-AAPA-pNA.
T8 chain: AAPA

These results are taken from patent publication US7371553.

Usually KM stands for the substrate concentration at which the rate is half of its maximum. One may read the kcat/KM as the turnover number divided by the Michaelis constant.

Read-outs that look alike come from different tables or passages of the source.

For “SBL L217C (unmodified cysteine mutant, R = H)”, the Michaelis constant (KM) in series [1] was 800 µM.

With SBL L217C-S-n-pentyl, the KM result in series [1] is listed as “KM 0.52±0.05 mM”. The same measure, in the same setting: the value for “SBL L217C-a of Example 1 (sulfonatoethyl side chain)” was 1800 µM; that for “SBL L217C-a of Example 2 (aminoethyl side chain)” was 640 µM; that for “SBL L217C-b of Example 1 (4-carboxybutyl side chain)” was 1030 µM. Same read-out and setting: the value for “SBL L217C-b of Example 2 (2-(trimethylammonium)ethyl side chain)” was 690 µM; that for “SBL L217C-c of Example 1 (3,5-dicarboxybenzyl side chain)” was 810 µM. On the same count and under the same terms, under “SBL L217C-c of Example 2 (5,5-bis(aminomethyl)-3-oxo-hexyl side chain)” stands 2940 µM. Consider “SBL L217C-d of Example 1 (3,3-dicarboxybutyl side chain)”, for which the Michaelis constant (KM) in series [1] came to 1650 µM. Same read-out and setting: the value for “SBL L217C-d of Example 2 (2,2-bis(aminomethyl)-3-aminopropyl side chain)” was 2900 µM.

As to “SBL L217C-e of Example 1 (3,3,4-tricarboxybutyl side chain)”, the Michaelis-Menten constant (KM) in series [1] came to 1480 µM. Same read-out and setting: the value for “SBL N62C (unmodified cysteine mutant, R = H)” was 1900 µM; that for SBL N62C-S-benzyl was “KM 0.34±0.03 mM”. In the case of SBL N62C-S-ethyl, in series [1], the Michaelis-Menten constant (KM) result was “KM 0.55±0.04 mM”. As to SBL N62C-S-n-pentyl, the KM result in series [1] is given as “KM 0.75±0.05 mM”. For “SBL N62C-a of Example 1 (sulfonatoethyl side chain)”, in series [1], the Michaelis-Menten constant (KM) came to 930 µM. In the case of “SBL N62C-a of Example 2 (aminoethyl side chain)”, in series [1], the KM turned out to be 1000 µM. For “SBL N62C-b of Example 1 (4-carboxybutyl side chain)”, the Michaelis constant (KM) in series [1] worked out at 1010 µM.

With “SBL N62C-b of Example 2 (2-(trimethylammonium)ethyl side chain)”, the KM in series [1] is 860 µM. “SBL N62C-c of Example 1 (3,5-dicarboxybenzyl side chain)”: the KM in series [1] amounted to 1000 µM. Still for that read-out and setting: under “SBL N62C-c of Example 2 (5,5-bis(aminomethyl)-3-oxo-hexyl side chain)” stands 1060 µM; under “SBL N62C-d of Example 1 (3,3-dicarboxybutyl side chain)”, 1470 µM. “SBL N62C-d of Example 2 (2,2-bis(aminomethyl)-3-aminopropyl side chain)”: in series [1], the Michaelis-Menten constant (KM) stood at 1170 µM. Still for that read-out and setting: the value for “SBL N62C-e of Example 1 (3,3,4-tricarboxybutyl side chain)” was 1460 µM. Same read-out and setting: the value for “SBL S156C (unmodified cysteine mutant, R = H)” was 850 µM; that for SBL S156C-S-benzyl was “KM 0.59±0.05 mM”. On the same count and under the same terms, under “SBL S156C-a of Example 1 (sulfonatoethyl side chain)” stands 1200 µM; under “SBL S156C-a of Example 2 (aminoethyl side chain)”, 730 µM. “SBL S156C-b of Example 1 (4-carboxybutyl side chain)”: the Michaelis-Menten constant (KM) in series [1] stood at 1080 µM.

For the molecule “SBL S156C-b of Example 2 (2-(trimethylammonium)ethyl side chain)”, in series [1], the KM is 740 µM. Take “SBL S156C-c of Example 1 (3,5-dicarboxybenzyl side chain)”: the KM in series [1] was found to be 1390 µM.

In the case of “SBL S156C-c of Example 2 (5,5-bis(aminomethyl)-3-oxo-hexyl side chain)”, the KM in series [1] came out at 760 µM.

On to “SBL S156C-d of Example 1 (3,3-dicarboxybutyl side chain)”, for which, in series [1], the KM came out at 1670 µM. On the same count and under the same terms, the value for “SBL S156C-d of Example 2 (2,2-bis(aminomethyl)-3-aminopropyl side chain)” was 810 µM; that for “SBL S156C-e of Example 1 (3,3,4-tricarboxybutyl side chain)” was 1870 µM. Take “SBL S166C (unmodified cysteine mutant, R = H)”: the KM in series [1] was found to be 500 µM. Still for that read-out and setting: the value for SBL S166C-(CH2)2NMe3+ was 1420 µM. With SBL S166C-S-CH2(CH2)2CH2COO-, in series [1], the KM stood at 1520 µM and the kcat/KM is 31000 M⁻¹ s⁻¹. Also, in series [2], the Michaelis constant (KM) came out at 8200 µM, the kcat/KM stood at 41 M⁻¹ s⁻¹ and the “ΔΔG‡T = RT ln[(kcat/KM)WT/(kcat/KM)CMM]” value is listed as “S166C-S-h -0.37”. Take SBL S166C-S-CH2(CH2)8CH3: in series [1], the Michaelis constant (KM) amounted to 1090 µM and the catalytic efficiency (kcat/KM) amounted to 75000 M⁻¹ s⁻¹. In addition, in series [3], the Michaelis-Menten constant (KM) came to 1900 µM and the specificity constant (kcat/KM) is 3600 M⁻¹ s⁻¹.

As to SBL S166C-S-CH2-c-C6H11, in series [1], the KM was 700 µM and the kcat/KM worked out at 6900 M⁻¹ s⁻¹. Also, in series [3], the Michaelis constant (KM) was 1900 µM and the kcat/KM turned out to be 14800 M⁻¹ s⁻¹. Consider SBL S166C-S-CH2C6H4-3,5-(COO-)2, for which, in series [1], the KM amounted to 1600 µM and the kcat/KM came out at 29000 M⁻¹ s⁻¹. Besides, in series [2], the KM was 5500 µM, the catalytic efficiency (kcat/KM) is 120 M⁻¹ s⁻¹ and the “ΔΔG‡T = RT ln[(kcat/KM)WT/(kcat/KM)CMM]” value is recorded as “S166C-S-d -1.00”. Turning to SBL S166C-S-CH2C6H5, in series [1], the Michaelis constant (KM) worked out at 1170 µM and the kcat/KM was 20000 M⁻¹ s⁻¹. Moreover, in series [3], the KM was found to be 800 µM and the kcat/KM stood at 9000 M⁻¹ s⁻¹. Take SBL S166C-S-CH2CH2C(CH3)(COO-)2: in series [1], the Michaelis constant (KM) is 2260 µM and the specificity constant (kcat/KM) is 30000 M⁻¹ s⁻¹. In series [2], the Michaelis constant (KM) was found to be 5300 µM, the catalytic efficiency (kcat/KM) was 80 M⁻¹ s⁻¹ and the “ΔΔG‡T = RT ln[(kcat/KM)WT/(kcat/KM)CMM]” value is listed as “S166C-S-1-0.76”. SBL S166C-S-CH2CH2C(COO-)3: in series [1], the KM is 2460 µM and the catalytic efficiency (kcat/KM) was 31000 M⁻¹ s⁻¹. Besides, in series [2], the KM worked out at 5200 µM, the catalytic efficiency (kcat/KM) worked out at 200 M⁻¹ s⁻¹ and the “ΔΔG‡T = RT ln[(kcat/KM)WT/(kcat/KM)CMM]” value is “S166C-S-j -1.31”.

Regarding SBL S166C-S-CH2CH2NH3+, the figures for the KM in series [4] and in series [1] were 1900 µM and 680 µM, respectively. The kcat/KM in series [4] was found to be 7600 M⁻¹ s⁻¹; in series [1], 74000 M⁻¹ s⁻¹. In addition, the “kcat/KM substrate screen (FIG. 10)” value in series [3] was “the substrate screen (FIG. 10) shows that suc-AAPA-pNA and suc-AAPR-pNA are poorer substrates”; in series [2], “the substrate screen (FIG. 10) shows that suc-AAPA-pNA and suc-AAPR-pNA are poorer substrates”. For SBL S166C-S-CH2CH2SO3-, in series [1], the KM came to 1340 µM and the catalytic efficiency (kcat/KM) was 19000 M⁻¹ s⁻¹. Also, in series [2], the KM was found to be 3400 µM, the kcat/KM stood at 50 M⁻¹ s⁻¹ and the “ΔΔG‡T = RT ln[(kcat/KM)WT/(kcat/KM)CMM]” value is listed as “S166C-S-b -0.49”. For SBL S166C-S-ethyl, in series [1], the KM entry is recorded as “KM0.76±0.08 mM”. Still for that read-out and setting: the value for “SBL S166C-c of Example 2 (5,5-bis(aminomethyl)-3-oxo-hexyl side chain)” was 1270 µM; that for “SBL S166C-d of Example 2 (2,2-bis(aminomethyl)-3-aminopropyl side chain)” was 1160 µM.

B1: subtilisin Bacillus lentus, wild type (protein)
chain: AQSVPWGISRVQAPAAHNRGLTGSGVKVAVLDTGISTHPDLNIRGGASFVPGEPSTQDGNGHGTHVAGTIAALNNSIGVLGVAPSAELYAVKVLGASGSGSVSSIAQGLEWAGNNGMHVANLSLGSPSPSATLEQAVNSATSRGVLVVAASGNSGAGSISYPARYANAMAVGATDQNNNRASFSQYGAGLDIVAPGVNVQSTYPGSTYASLNGTSMATPHVAGAAALVKQKNPSWSNVQIRNHLKNTATSLGSTNLYGSGLVNAEAATR
On to B1, for which the Michaelis constant (KM) came out at 4400 µM in series [5], 7200 µM in series [6], 730 µM in series [7] and 2000 µM in series [8]. For the same molecule, the specificity constant (kcat/KM) in series [5] was 400 M⁻¹ s⁻¹; in series [6] it was 22 M⁻¹ s⁻¹; in series [7] it was 209000 M⁻¹ s⁻¹; in series [8] it was 8800 M⁻¹ s⁻¹.
